According to US20200405833A1 (AFFIMED, published 2020):

Legend:
[1] = biological target: T1, huCD16A^RV-His (human); assay: ELISA, coated EGFR/CD16A scFv-IgAb, soluble huCD16A^RV-His titrated (the concentration axis is that of the antigen), Penta-HIS-HRP per paragraph 126
T1 construct: soluble, His-tagged; also called CD16-His antigen
Method: (§1) 96-well ELISA plates (Immuno MaxiSorp; Nunc) were coated overnight at 4° C. with recombinant antigen or antibodies in 100 mM Carbonate-bicarbonate buffer. […] After a blocking step with 3% (w/v) skim milk powder (Merck) dissolved in PBS, serial dilutions of the different antibodies or soluble antigens in PBS containing 0.3% (w/v) skim milk powder were incubated on the plates for 1.5 h at room temperature. After washing three times with 300 μL per well of PBS containing 0.1% (v/v) Tween 20, plates were incubated with detection antibodies for 1 h at room temperature. For the detection of His-tagged analytes, Penta-HIS-HRP (Qiagen) was used at 1:3000 dilution. […] After washing three times with 300 μL per well of PBS containing 0.1% (v/v) Tween 20, plates were incubated with Tetramethylbenzidine (TMB) substrate (Seramun) until colour development was clearly visible. The reaction was stopped through the addition of 100 μL per well of 0.5 M H₂SO₄. The absorbance was measured at 450 nm using a multilabel plate reader (Victor, Perkin Elmer).

[2] = biological target: T2, human EGFR on cells (human, UniProt P00533 25-1210); assay: flow cytometry on EGFR-expressing A-431 cells, 37° C.
T2 construct: whole, on cells; also called EGFR+ CHO cells

[3] = biological target: T3, EGFR-mFc; assay: ELISA, coated EGFR-mFc antigen, scFv-IgAb titrated, bound construct detected with biotinylated CD16-Fc and streptavidin-HRP
T3 construct: Coated at 2.5 µg/mL in ELISA; also called monomeric EGFR-mFc; EGFR-mFc antigen
Method: as §1

[4] = biological target: T2, human EGFR on cells; assay: cell-based or functional assay
[5] = biological target: T2, human EGFR on cells; assay: saturation binding assay on A-431 cells with radioiodinated scFv-IgAB_02; saturation binding assay on A-431 cells
[6] = biological target: T4, CD16A on primary human NK-cells (human, UniProt P08637 17-254); assay: flow cytometry on primary human NK-cells, 37°C, without IgG; mean of 2 experiments
T4 construct: whole, on cells; also called FcγRIIIA
Method: (§2) After the last staining step, the cells were washed again and resuspended in 0.2 mL of FACS buffer containing 2 μg/mL propidium iodide (PI) (Sigma, cat.: P4170) in order to exclude dead cells. The fluorescence of 2-5×10³ living cells was measured using a Millipore Guava EasyCyte flow cytometer (Merck Millipore, Schwalbach, Germany). Mean fluorescence intensities of the cell samples were calculated using Incyte software (Merck Millipore, Schwalbach, Germany). After subtracting the fluorescence intensity values of the cells stained with the secondary and tertiary reagents alone, the values were used for non-linear regression analysis using the GraphPad Prism software (GraphPad Prism version 6.00 for Windows, GraphPad Software, La Jolla Calif. USA). For the calculation of KD, the equation for one-site-binding (hyperbola) was used.
(§3) To assess the impact of physiological concentrations of human IgG on the binding capacity of bispecific EGFR/CD16A antigen-binding proteins, binding assays with several bispecific EGFR/CD16A antigen-binding proteins on primary human NK-cells were performed in presence or absence of 10 mg/mL polyclonal human IgG as exemplarily shown in FIG. 10.

[7] = biological target: T4, CD16A on primary human NK-cells; assay: flow cytometry on primary human NK-cells, 37°C, with 10 mg/mL polyclonal human IgG (Gammanorm); mean of 2 experiments
Method: as §2, §3

[8] = biological target: T2, human EGFR on cells; assay: cell-based or functional assay; remark: listed apart in the source
[9] = biological target: huCD16A (human, UniProt P08637 17-208, limits assumed); assay: RIA assay on huCD16A with radioiodinated scFv-IgAB_02; RIA assay on huCD16A
[10] = biological target: T2, human EGFR on cells; assay: cell-based or functional assay; remark: listed apart in the source
[11] = biological target: T5, Cynomolgus FcRn (FCGRT/B2M) (cynomolgus, UniProt Q8SPV9 24-297; Q8SPW0 21-119, biotin-labelled (Avi-Tag)); assay: SPR (Biacore T200), pH 6.0, biotinylated FcRn captured, multi cycle kinetics, 1:1 model
T5 construct: Purchased; also called FcRn (FCGRT/B2M), Avi-Tag, Biotin-Labeled, (Cynomolgus) Acro Cat #FCM-C82W5
Method: (§4) Binding of EGFR/CD16A antigen-binding proteins to FcRn (human, cynomolgus, murine) was measured on a Biacore T200 Instrument at 25° C. using PBS-T buffer pH 6.0 as running buffer and for dilution (1×Gibco PBS, 0.005% Tween20, titrated to pH 6.0 using 4 M HCl). For this purpose, a Multi Cycle Kinetic experiments was performed using Biotin CAPture Kit (GE Healthcare). For activation of the sensor surface, Biotin CAPture reagent (GE Healthcare) was injected to Flow Cells Fc 1-4 (100 sec, 5 μL/min) resulting in a response of 2100 RU-2800 RU. Biotinylated FcRn of different species were injected to Flow Cell Fc 2 (5 μL/min) resulting in a response of about 8-15 RU. A dilution series of EGFR/CD16A antigen-binding proteins was in (pH 7.4) as running buffer and for dilution. […] Chip was regenerated using Regeneration solution (GE Healthcare) (10 μL/min, Flow cells 1-4, 120 sec). Sensorgrams are referenced by subtraction of zero concentration cycle and subtraction of signals in reference channel Fc 1 (Fc 2-1, Fc 3-1, Fc 4-1). […] Chip was regenerated using Regeneration solution (GE Healthcare) (10 μL/min, Flow cells 1-4, 120 sec). […] Binding kinetics were evaluated by fitting data to 1:1 Binding Model (Rmax and RI locally fitted) using Biacore T200 Evaluation Software.

[12] = biological target: T6, Human FcRn (FCGRT/B2M) (human, UniProt P55899 24-297; P61769 21-119, biotin-labelled (site not stated)); assay: as above
T6 construct: Purchased; also called FcRn (FCGRT/B2M), His-Tag, Biotin-Labeled, (Human) HiP Cat #71283

[13] = biological target: T7, Mouse FcRn (FCGRT/B2M) (mouse, UniProt Q61559 22-297; P01887 21-119, biotin-labelled (Avi-Tag)); assay: as above
T7 construct: Purchased; also called murine FcRn; murine FcRn receptor
T7 sequence (looked up): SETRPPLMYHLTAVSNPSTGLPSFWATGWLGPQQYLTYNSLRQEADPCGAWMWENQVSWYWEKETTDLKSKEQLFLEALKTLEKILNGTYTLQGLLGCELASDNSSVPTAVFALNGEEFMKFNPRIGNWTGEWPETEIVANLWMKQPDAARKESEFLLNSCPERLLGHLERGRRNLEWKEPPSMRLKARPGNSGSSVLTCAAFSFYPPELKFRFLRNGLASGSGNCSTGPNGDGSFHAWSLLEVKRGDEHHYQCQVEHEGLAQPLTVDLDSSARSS
T7 sequence (b2m, looked up): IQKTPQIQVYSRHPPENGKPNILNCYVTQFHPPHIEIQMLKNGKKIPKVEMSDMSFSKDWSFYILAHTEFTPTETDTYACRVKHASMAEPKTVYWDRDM
Method: as §4

[14] = biological target: T8, EGFR-antigen (ELISA); assay: ELISA, coated EGFR-Fc antigen, tandem diabody titrated (His-tagged analyte, Penta-HIS-HRP per paragraph 126)
T8 construct: also called EGFR-Fc
Method: as §1

[15] = biological target: T2, human EGFR on cells; assay: flow cytometry on CHO cells expressing recombinant human EGFR, 37°C; apparent affinity
Method: (§5) After last staining step, the cells were washed again and resuspended in 0.2 mL of FACS buffer containing 2 μg/mL propidium iodide (PI) (Sigma, cat.: P4170) in order to exclude dead cells. The fluorescence of 2-5×10³ living cells was measured using a Beckman-Coulter FC500 MPL flow cytometer using the MXP software (Beckman-Coulter, Krefeld, Germany) or a Millipore Guava EasyCyte flow cytometer (Merck Millipore, Schwalbach, Germany). Mean fluorescence intensities of the cell samples were calculated using CXP software (Beckman-Coulter) or Incyte software (Merck Millipore, Schwalbach, Germany). After subtracting the fluorescence intensity values of the cells stained with the secondary and tertiary reagents alone, the values were used for non-linear regression analysis using the GraphPad Prism software (GraphPad Prism version 6.00 for Windows, GraphPad Software, La Jolla Calif. USA). For the calculation of KD, the equation for one-site-binding (hyperbola) was used.

[16] = biological target: T6, Human FcRn (FCGRT/B2M); assay: SPR (Biacore T200), pH 6.0, biotinylated FcRn captured, multi cycle kinetics
Method: as §4

[17] = biological target: T7, Mouse FcRn (FCGRT/B2M); assay: as above
Method: as §4

[18] = biological target: T5, Cynomolgus FcRn (FCGRT/B2M); assay: as above
Method: as §4

[19] = biological target: T2, human EGFR on cells; assay: flow cytometry on HCT-116 cells, 37°C; mean of 2 experiments
Method: After the last staining step, the cells were washed again and resuspended in 0.2 mL of FACS buffer containing 2 μg/mL propidium iodide (PI) (Sigma, cat.: P4170) in order to exclude dead cells. The fluorescence of 2-5×10³ living cells was measured using a Millipore Guava EasyCyte flow cytometer (Merck Millipore, Schwalbach, Germany). Mean fluorescence intensities of the cell samples were calculated using the Incyte software (Merck Millipore, Schwalbach, Germany). After subtracting the fluorescence intensity values of the cells stained with the secondary and tertiary reagents alone, the values were used for non-linear regression analysis using the GraphPad Prism software (GraphPad Prism version 6.00 for Windows, GraphPad Software, La Jolla Calif. USA). For the calculation of KD, the equation for one-site-binding (hyperbola) was used.

[20] = biological target: T9, EGFRvIII on CHO cells (human, UniProt P00533 25-1210); assay: flow cytometry on CHO cells expressing recombinant EGFRvIII, 37°C; apparent affinity
T9 construct: whole, on cells; the exon 2-7 deletion must be applied; also called EGFRvIII+ CHO cells
Method: as §5

[21] = biological target: T10, CD16A-antigen (ELISA); assay: ELISA, coated CD16A-Fc antigen, tandem diabody titrated (His-tagged analyte, Penta-HIS-HRP per paragraph 126)
T10 construct: also called CD16A-Fc
Method: as §1

[22] = biological target: T2, human EGFR on cells; assay: cell-based or functional assay; remark: listed apart in the source
[23] = biological target: T4, CD16A on primary human NK-cells; assay: flow cytometry on primary human NK-cells, 37° C., with 10 mg/mL gammanorm (polyclonal human IgG)
Method: as §2, §3

T5 sequence (Q8SPV9 24-297 limits assumed, chain 1 of 2): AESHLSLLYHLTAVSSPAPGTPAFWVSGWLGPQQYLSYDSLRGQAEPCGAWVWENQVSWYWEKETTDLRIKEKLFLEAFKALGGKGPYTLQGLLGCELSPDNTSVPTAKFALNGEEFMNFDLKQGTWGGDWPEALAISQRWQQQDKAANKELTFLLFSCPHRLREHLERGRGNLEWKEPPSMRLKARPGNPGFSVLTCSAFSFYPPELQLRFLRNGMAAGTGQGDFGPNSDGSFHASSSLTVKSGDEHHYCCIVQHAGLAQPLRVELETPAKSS
T5 sequence (Q8SPW0 21-119 limits assumed, chain 2 of 2): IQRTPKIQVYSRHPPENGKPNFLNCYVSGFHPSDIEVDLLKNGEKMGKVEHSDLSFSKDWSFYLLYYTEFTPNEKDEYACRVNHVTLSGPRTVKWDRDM
T6 sequence (P55899 24-297 limits assumed, chain 1 of 2): as the sequence (Q8SPV9 24-297 limits assumed, chain 1 of 2) above, with D39N, Q44E, S99G, G189S, N190S, M217L, T269S counted along it
T6 sequence (P61769 21-119 limits assumed, chain 2 of 2): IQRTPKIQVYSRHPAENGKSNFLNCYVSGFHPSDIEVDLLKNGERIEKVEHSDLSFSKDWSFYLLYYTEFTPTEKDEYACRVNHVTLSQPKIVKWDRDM

B1: scFv-IgAb_02 (bispecific antibody)
heavy: QVQLVQSGAEVKKPGESLKVSCKASGYTFTSYYMHWVRQAPGQGLEWMGIINPSGGSTSYAQKFQGRVTMTRDTSTSTVYMELSSLRSEDTAVYYCARGSAYYYDFADYWGQGTLVTVSSASTKGPSVFPLAPSSKSTSGGTAALGCLVKDYFPEPVTVSWNSGALTSGVHTFPAVLQSSGLYSLSSVVTVPSSSLGTQTYICNVNHKPSNTKVDKKVEPKSCDKTHTCPPCPAPEFEGGPSVFLFPPKPKDTLMISRTPEVTCVVVAVSHEDPEVKFNWYVDGVEVHNAKTKPREEQYNSTYRVVSVLTVLHQDWLNGKEYKCKVSNKALPAPIEKTISKAKGQPREPQVYTLPPSREEMTKNQVSLTCLVKGFYPSDIAVEWESNGQPENNYKTTPPVLDSDGSFFLYSKLTVDKSRWQQGNVFSCSVMHEALHNHYTQKSLSLSPGGGGGSGGGGSQVQLQESGPGLVKPSETLSLTCTVSGGSVSSGSYYWSWIRQPPGKGLEWIGYIYYSGSTNYNPSLKSRVTISVDTSKNQFSLKLSSVTAADTAVYYCARNPISIPAFDIWGQGTMVTVSSGGSGGSGGSGGSGGSGGSQPVLTQPPSVSVAPGKTARITCGGNNIGSKSVHWYQQKPGQAPVLVIYYDSDRPSGIPERFSGSNSGNTATLTISRVEAGDEADYYCQVWDTSSDHVLFGGGTKLTVL
light: SYVLTQPSSVSVAPGQTATISCGGHNIGSKNVHWYQQRPGQSPVLVIYQDNKRPSGIPERFSGSNSGNTATLTISGTQAMDEADYYCQVWDNYSVLFGGGTKLTVLGQPKAAPSVTLFPPSSEELQANKATLVCLISDFYPGAVTVAWKADSSPVKAGVETTTPSKQSNNKYAASSYLSLTPEQWKSHRSYSCQVTHEGSTVEKTVAPTECS
notes: Tetravalent, bispecific: anti-CD16A Fab arms, silenced human IgG1 Fc, anti-EGFR scFv fused C-terminally to CH3; also called EGFR/CD16A scFv-IgAb; scFv-IgAb_2
[1]
  EC50 (read off the curve): ~1 nM
[2]
  EC50 (read off the curve): ~2 nM
[3]
  EC50 (read off the curve): ~0.02 µg/mL
[4]
  EC50 [pM] mean, 4 h calcein-release cytotoxicity, A-431 target cells, human NK-cells E:T 5:1: 2.1 pM
[5]
  Kd: 6.98 nM
[6]
  Kd: 8 nM
[7]
  Kd: 13.1 nM
[8]
  EC50 [pM] mean, 4 h calcein-release cytotoxicity, HCT-116 target cells, human NK-cells E:T 5:1: 4.3 pM
[9]
  Kd: 0.729 nM
[10]
  EC50 [µg/mL] on A-431 cells, inhibition of EGF-stimulated EGFR phosphorylation (phospho-EGFR ELISA): 1520 µg/mL
  EC50 [µg/mL] on A-549 cells, inhibition of EGF-stimulated EGFR phosphorylation (phospho-EGFR ELISA): 478 µg/mL
[11]
  Kd: 842 nM
[12]
  Kd: 430 nM
[13]
  Kd: 180 nM

B2: EGFR/CD16A tandem diabody (bispecific antibody)
chain: QVQLQESGPGLVKPSETLSLTCTVSGGSVSSGSYYWSWIRQPPGKGLEWIGYIYYSGSTNYNPSLKSRVTISVDTSKNQFSLKLSSVTAADTAVYYCARNPISIPAFDIWGQGTMVTVSSGGSGGSGGSSYVLTQPSSVSVAPGQTATISCGGHNIGSKNVHWYQQRPGQSPVLVIYQDNKRPSGIPERFSGSNSGNTATLTISGTQAMDEADYYCQVWDNYSVLFGGGTKLTVLGGSGGSQVQLVQSGAEVKKPGESLKVSCKASGYTFTSYYMHWVRQAPGQGLEWMGIINPSGGSTSYAQKFQGRVTMTRDTSTSTVYMELSSLRSEDTAVYYCARGSAYYYDFADYWGQGTLVTVSSGGSGGSGGSQPVLTQPPSVSVAPGKTARITCGGNNIGSKSVHWYQQKPGQAPVLVIYYDSDRPSGIPERFSGSNSGNTATLTISRVEAGDEADYYCQVWDTSSDHVLFGGGTKLTVLAAAGSHHHHHH
notes: no Fc; also called Tandem diaody
[14]
  EC50 (read off the curve): ~0.02 µg/mL
[15]
  Kd: 0.7 nM
[2]
  EC50 (read off the curve): ~2 nM
[16]
  binding result: no binding (tested: up to 3000 nM)
[17]
  binding result: no binding (tested: up to 3000 nM)
[18]
  binding result: no binding (tested: up to 3000 nM)
[19]
  Kd: 0.3 nM
[4]
  EC50 [pM] mean, 4 h calcein-release cytotoxicity, A-431 target cells, human NK-cells E:T 5:1: 1.1 pM
[6]
  Kd: 7.7 nM
[20]
  Kd: 0.5 nM
[21]
  EC50 (read off the curve): ~0.03 µg/mL
[7]
  Kd: 8.8 nM
[8]
  EC50 [pM] mean, 4 h calcein-release cytotoxicity, HCT-116 target cells, human NK-cells E:T 5:1: 1.5 pM
[22]
  EC50, inhibition of EGF-induced EGFR phosphorylation (phospho-EGFR ELISA, A-431 cells), Exp.1: > 100 µg/mL
  EC50, inhibition of EGF-induced EGFR phosphorylation (phospho-EGFR ELISA, A-431 cells), Exp.2: > 100 µg/mL
[23]
  EC50 (read off the curve): ~10 nM
